Several values for one entry are separate records, joined by “and”; a condition that tells them apart may be missing. Equal values may be shown once.

Substrate in this data set: O=P(O)(O)O[C@H]1O[C@H](CO)[C@H](O)[C@H](O)[C@H]1O
Briefly: purified protein, by the assay type.

[1] abbreviates: other: SUMO-tagged YidA as coupling enzyme, pH 8.0.

B1: Duarte GalT (galactose-1-phosphate uridylyltransferase, Duarte variant) (Homo sapiens; N314D) (protein)
chain: MSRSGTDPQQRQQASEADAAAATFRANDHQHIRYNPLQDEWVLVSAHRMKRPWQGQVEPQLLKTVPRHDPLNPLCPGAIRANGEVNPQYDSTFLFDNDFPALQPDAPSPGPSDHPLFQAKSARGVCKVMCFHPWSDVTLPLMSVPEIRAVVDAWASVTEELGAQYPWVQIFENKGAMMGCSNPHPHCQVWASSFLPDIAQREERSQQAYKSQHGEPLLMEYSRQELLRKERLVLTSEHWLVLVPFWATWPYQTLLLPRRHVRRLPELTPAERDDLASIMKKLLTKYDNLFETSFPYSMGWHGAPTGSEAGANWDHWQLHAHYYPPLLRSATVRKFMVGYEMLAQAQRDLTPEQAAERLRALPEVHYHLGQKDRETATIA
The term Km denotes the concentration of substrate that gives half-maximal velocity. Broadly, the kcat is the maximal rate divided by the concentration of active sites. Regarding B1, the Michaelis constant (Km) is 890 ± 30 µM under setting [1]; 660 ± 20 µM and 530 ± 40 µM (other: mean ± SD of three independent trials, pH 8.0); 550 ± 90 µM and 480 ± 30 µM (other: single trials, ± curve-fit error, pH 8, 37° C., 0.8 mM UDP-glucose, 37.0 °C); 670 ± 180 µM and 630 ± 140 µM and 670 ± 150 µM (other: single trials, ± curve-fit error, pH 8.0, 37° C., 1 mM UDP-glucose, 37.0 °C). Also, under setting [1], the kcat stood at 14.8 ± 0.867 s⁻¹.

For the origin of these results see patent US20240247301A1, “DIAGNOSTIC ASSAY FOR CLASSIC INBORN GALACTOSEMIA” (Ohio State Innovation Foundation, priority 2022, published 2024).
